Results reported in US20070099822A1, “Regulation of tissue mineralization and phosphate metabolism by asarm peptides” (priority 2003, published 2007).
“Also recorded” adds a separate entry of the source.

How the values were obtained:
[1] = tested on: mouse osteoblast cell-line 2T3; assay: Mineralized bone matrix formation assay (von Kossa), BMP2-induced; type: cell-based; conditions: 2T3 cells; for effect on BMP2-mediated mineralization (von Kossa staining): Hu-MEPE 10-800 ng/mL, ASARM-peptide 60 and 300 ng/mL, control peptide 300 ng/mL
Excerpt: Mineralized bone matrix formation assay. A mouse osteoblast cell-line (2T3-cells) were monitored using a mineralized matrix formation assay as described by Bhargava et al. (Ultrastructural analysis of bone nodules formed in vitro by isolated fetal rat calvaria cells. Bone 9:155-63, 1988) and cultured as described previously (Bhargava et al., supra; Chen et al. Differential roles for bone morphogenetic protein (BMP) receptor type IB and IA in differentiation and specification of mesenchymal precursor cells to osteoblast and adipocyte lineages. J Cell Biol 142:295-305, 1998; and Zhao, et al. Bone morphogenetic protein receptor signaling is necessary for normal murine postnatal bone formation. J Cell Biol 157:1049-60, 2002). Mineralization of the murine osteoblastic 2T3 cell-line has been extensively studied using physical techniques, electron microscopy and histological techniques. This cell line (2T3) undergoes exogenous BMP2-induced mineralized-matrix indistinguishable from normal bone-mineral hydroxyapatite in-vitro (Bhargava et al., supra; Chen et al., supra; and Zhao et al., supra). The cells were plated in 24-well culture plates at density of 2×10^4 cells/well and cultured with minimal essential medium (MEM) supplemented with 10% FCS. When the cells reached confluency (day 0), the medium was changed to MEM containing 5% FCS, 100 μg/mL ascorbic acid and 5 mM β-glycerol phosphate with or without 100 ng/mL of BMP-2. The effects of Hu-MEPE, MEPE ASARM-peptide and control peptide at different doses (see results section) in the absence and presence of BMP2 were measured using the von Kossa stain for mineralization. The medium was changed every other day and fresh reagents were added. Von Kossa stain of mineralized bone matrix was performed as follows. The cell cultures were washed with PBS twice, fixed in phosphate buffered formalin for 10 min, and then washed with water, and serially dehydrated in 70%, 95%, and 100% ethanol, twice each and air dried. The plates were rehydrated from 100% to 95% to 80% ethanol to water before staining. The water was removed, a 2% silver nitrate solution was added, and the plates were exposed to sunlight for 20 min, after which the plates were rinsed with water. 5% sodium thiosulfate was added for 3 min and the plates were then rinsed with water. The modified van Gieson stain was then used as a counterstain after the von Kossa stain. The unmineralized collagen matrix can be recognized by the yellow/red van Gieson stain. The acid fuchsin solution (5 part of 1% acid fuchsin, 95 part of picric acid, and 0.25 part of 12 M HCl) was added for 5 min. The plates were washed with water, and then 2×95% ethanol and 2×100% ethanol, and dried for image analysis. The area of von Kossa stained matrix was quantitated as previously described (Chen et al., supra). Briefly matrix was quantified by automated image analysis using a video analysis program (Jandel Scientific, San Rafael Calif.) and also a Bio-Rad (Hercules, Calif.) Quantity-1 image analysis capture program. A video screen camera (CCD/RGB; Sony Corp., Park Ridge, N.J.) linked to a microscope (model BH2; Olympus Corp., Precision Instruments Division, Lake Success, N.Y.) equipped with metallurgical lens was used to image plates.

[2] = tested on: Na+ dependent phosphate co-transport in human renal proximal tubule cell-line (Hu-CL8); assay: 33PO4 uptake scintillation proximity assay (SPA) in Hu-CL8; type: cell-based
Description: Measurement of ^33PO4 uptake and ^14C-α-methyl D-glucose uptake. A novel technique, scintillation proximity assay (SPA), was used to measure ^33PO4 uptake in-vitro. Human renal proximal-tubule primary cells (RPTEC) were purchased from Clonetics-Biowhittaker (Walkersville, Md.) (cat. no. CC2553) and were cultured and subcultured using the manufacturers recommended protocols, methods, buffers and media (cat. nos. CC3190, CC5034). Also a human renal cell-line (Hu-CL8) was cultured as previously described (Rowe et al. Candidate 56 and 58 kDa protein(s) responsible for mediating the renal defects in oncogenic hypophosphatemic osteomalacia. Bone 18(2):159-169, 1996). For ^33PO4-uptake measurement cells were grown in REBM media supplemented with 5% fetal calf serum (REBM-FCS) to 80% confluence (Clonetics-Biowhitaker, Walkersville, Md.: cat. nos. CC2553, CC3190 and CC5034) and seeded into 96 well (3000 cells/well) cytostar-T scintillating-microplates (Amersham-Pharmacia Biotech, Piscataway, N.J.: cat. no. RPNQ 0162). Cells were then cultured in 200 μL of REBM-FCS media for 24 h. Media was then replaced with serum free media (REBM) and the cells incubated for a further 3-4 h with Hu-MEPE, PTH (1-34) or media control respectively in REBM media. The concentrations of PTH (1-34) and Hu-MEPE were […] and each experimental dose was repeated eight times for statistical analysis. Following incubation media was removed and replaced with either phosphate uptake buffer (PUB) consisting of 150 mM NaCl/1 mM Cacl2/1.8 mM MgSO4/10 mM HEPE pH 7.0/0.1 mM phosphate buffer pH 7.0 and 3 uCi mL^−1 33P as orthophosphoric acid (18 MBq/mL or 5775.7 Gbq/mg stock solution Perkin Elmer, Wellesley, Mass.: cat. no. NEZ080). In order to determine the Na-dependent phosphate co-transporter activity a separate set of control cells were incubated with the same buffer but with choline chloride (150 mM) substituted for NaCl (CHUB buffer). […] Due to the unique design of the 96 well cytostar-plate radioactive decay in solution is not detected by the counter. In contrast, radioisotope attached to or taken into the cells initiates release of plastic-scintillant photons that are detected by the top-counter photo-multiplier tube. Thus, no washes are required and direct CPM can be counted in living cells. […] Conversion of a tetrazolium salt to a colored formazan product by living cells was then measured at 490 nm using a 96 well multi-well spectrophotometer with KC-4 software (absorbance at 490 nm is directly proportional to the number of living cells). Na-dependent ^33P uptake was then calculated by subtracting background counts and the choline chloride non Na-dependent ^33P uptake and results expressed as ^33PO4 femtomoles/10^4-cells/6 min. […]

Molecule	effect on BMP2-mediated mineralization (von Kossa staining) ([1]; BMP2 100 ng/mL, listed as MEPE ASARM-peptide)	effect on BMP2-mediated mineralization (von Kossa staining) ([1]; BMP2 100 ng/mL, listed as MEPE-ASARM-peptide)	Vmax of percentage inhibition of 33PO4-uptake ([2]; Hu-CL8)	inhibition of Na+ dependent phosphate co-transport ([2]; Hu-CL8)	Km of inhibition of 33PO4-uptake ([2]; Hu-CL8, lineweaver-burke plot)	effect on BMP2-mediated mineralization at concentrations above 100 ng/mL ([1]; BMP2 100 ng/mL, Hu-MEPE above 100 ng/mL)	effect on BMP2-mediated mineralization (von Kossa staining) ([1]; BMP2 100 ng/mL)	mineralization in the absence of BMP2 ([1]; no BMP2)
H-CFSSRRRDDSSESSDSGSSSESDGD-OH [ASARM-peptide]	dose-dependently inhibits	inhibit						
Hu-MEPE: purified insect expressed full-length recombinant human MEPE (Matrix Extracellular Phosphoglycoprotein) (protein) PTFQPQTEKTKQSCVEEQRQEEKNKDNIGFHHLGKRINQELSSKENIVQERKKDLSLSEASENKGSSKSQNYFTNRQRLNKEYSISNKENTHNGLRMSIYPKSTGNKGFEDGDDAISKLHDQEEYGAALIRNNMQHIMGPVTAIKLLGEENKENTPRNVLNIIPASMNYAKAHSKDKKKPQRDSQAQKSPVKSKSTHRIQHNIDYLKHLSKVKKIPSDFEGSGYTDLQERGDNDISPFSGDGQPFKDIPGKGEATGPDLEGKDIQTGFAGPSEAESTHLDTKKPGYNEIPEREENGGNTIGTRDETAKEADAVDVSLVEGSNDIMGSTNFKELPGREGNRVDAGSQNAHQGKVEFHYPPAPSKEKRKEGSSDAAESTNYNEIPKNGKGSTRKGVDHSNRNQATLNEKQRFPSKGKSQGLPIPSRGLDNEIKNEMDSFNGPSHENIITHGRKYHYVPHRQNNSTRNKGMPQGKGSWGRQPHSNRRFSSRRRDDSSESSDSGSSSESDGD			9.1%	dose-dependent in-vitro inhibition	23.8 ng/mL	very effective inhibitors; also recorded: completely inhibited mineralization	dose dependently and reproducibly inhibited mineralization; also recorded: inhibit; also recorded: highly significant inhibition	no effect on mineralization; also recorded: indistinguishable to control cells
